Results: the nanobody polyreactivity screen of Harvey et al. (2022)

Assay: yeast display, Sf9 membrane polyspecificity reagent, FACS + sequencing; frameworks hold sequencing errors
Summary of the method: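 Galactose induction of a Saccharomyces cerevisiae BJ5465 synthetic nanobody display library ran 36–48 hours. The cells were then stained for 1 hour at 4 °C with 10% biotinylated, detergent-solubilized Sf9 membrane reagent, pulled down on streptavidin microbeads and FACS-sorted into low and high (top ~1%) gates on expression and reagent-binding fluorescence. Labels for polyreactivity follow the gate of origin.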

| Sequence | polyreactivity (PSR sort gate) |
| --- | --- |
| QVQLVESAGGLVQAGGSLRLSCAASGRIFLYNAMGWYRQAPGKERELVAVISSNGGRTYYADSVKGRFTISRDNAKNTVYLQMNSLKPEDTAVYYCAAVQHYVTHMDYWGQGTQVTVSS | low polyreactivity |
| QVQLVESAGGLVQAGGSLRLSCAASGRIFRSNAMGWYRQAPGQERELVAAINNRDTSTYADSVKGRFTISRDNAKNTVYLQMNSLKPEDTAVFYCAARYQYYSTYGVTLDYWGQGSQVTVSS | low polyreactivity |
| QVQLVESAGGLVQAGGSLRLSCAASGRIFSRYAMGWYRQAPGKERELVAAITQSGTSTYYADSVKGRFTISRDNAKNTVYLQMNSLKPEDTAVYYCNAYRQYRYDYWGQGTQVTVSS | low polyreactivity |
| QVQLVESAGGLVQAGGSLRLSCAASGRIFVTNAMGLYRQAPGKEREFVAGISFSGDGRTYYADSVKGRFTISRDYAKNSVYFQMNSLKPEDTAVYYCAAPHRSRTHELDYWGLGTQVTVSS | low polyreactivity |
| QVQLVESAGGLVQAGGSLRLSCAASGRNFYYYAMGWYRQAPGKERELVAAISIGGITYADSVKGRFTISRDNAKNTVYLQMNRLKPEDTAVYYCAATARQSRGRYYWGQGTQVTVSS | low polyreactivity |
| QVQLVESAGGLVQAGGSLRLSCAASGRTFFRNAMGWYRQAPGKERELVAGITASGGNTYYADSVKGRFTISRDNAKNTVYLQMNSLKPEDTAVYFCNAVYSLARITRAGYGYWGQGPQVTVSS | high polyreactivity |
| QVQLVESAGGLVQAGGSLRLSCAASGRTFGRKAMVWSRQAPGERELGAVISRGGSTYYADTVKGRFTISRDNAKNTVYLQMNILKPEDTAVYYCNADTVYTRTGPYDYWGQGTQVTVSS | low polyreactivity |
| QVQLVESAGGLVQAGGSLRLSCAASGRTFRTYAMGWYRPAPVKERELVAAITSGGNTYYADSVKGRFTISRDNAKNTVYLQMNSLKPEDTAVYYCAAVQYFKVYYWGQGTQVTVSS | high polyreactivity |
| QVQLVESAGGLVQAGGSLRLSCAASGRTLSNYAMGWYREAPGKERELVAVISQSGGRTYYADSVKGRFTISRDNAKNTVYLQLNSLKPEDTAVYYCNVDISWLRRKFDYWGQVTQVTVSS | low polyreactivity |
| QVQLVESAGGLVQAGGSLRLSCAASGSIFDAYAMGWYRQAPGKERELVAAIIARGGSTYYADSVKGRFTISRDNAKTTVYLQMISLKPEDTAVSYCNRLSRVRRYIYDYWGQGTQVTVSS | high polyreactivity |
| QVQLVESAGGLVQAGGSLRLSCAASGSIFTYYAMGWYIQAPGKERELVAAISSDGGRTFYADSVKGRFTISRDNAKNTVYLQMNSLKPEDTAVYYCAAETNRFPGYGYWGQGTQVTVSS | low polyreactivity |
| QVQLVESAGGLVQAGGSLRLSCAASGSISAGNAMGWNRQAPGKERELVAAISGSGGSTYYADSVKGRFTISRYNAKNSVDLQMKSLKPEDTAVYYCAARGGYRLRYIPYVRYDYWGEGTQVTVSS | high polyreactivity |
| QVQLVESAGGLVQAGGSLRLSCAASGSTFGPYAMGWYRQVPGKERELVAGISYGGGTTFYADSVKGRFTISRDNAKYTVYLQMNSLKPEDTAVYYCAATYRPNRYLEGYWGQGTQVTVSS | high polyreactivity |
| QVQLVESAGGLVQAGGSLRLSCAASGSTFLSYFMGWYRQAPGKERELVAAITGTGGRTYYADSVKGRFTISRDNAKNTVYLQMNSLKPEDSAVYYCTAYRKHGYDYWGQGTQVTVSS | high polyreactivity |
| QVQLVESAGGLVQAGGSLRLSCAASGSTFRLNTMGWYRQEPGNERELVAGISYSGGSTYYADSVNGRFTISRDNAKNTVYLQMNSLKPEDTAVYYCNKRAWFSSKDDYWGQGTQVTVSS | high polyreactivity |
| QVQLVESAGGLVQAGGSLRLSCAASGSTFVTNVMGWYRQAPGKERELVAAISYSGGNTYFEDSVKGRFTISRDYAKNTVYLQMNSLKPEDTAVYSCAASYKPFKKMGYWGQGTQVTVSS | high polyreactivity |
| QVQLVESAGGLVQAGGSLRLSCAASGYTFPYYTMGWYRQAPGKERELVATITRRGDSTYYADSVKGRFTISRDNAKNTVYLQMNSLKPEDTAVYYCNTASYGRHQFRKSSKMDYWGQGTQVTVSS | high polyreactivity |
| QVQLVESAGGLVQAGGSLRLSCAASGYTFVNYAMGWYRQAPGKERELVAAISRSGGSTYYADSVKGRFTISRDHAKNTVYLQMNSLKPEDTAVYYCAKVVQGDHPYDYWGQGTQVTVSS | high polyreactivity |
| QVQLVESAGGLVQAGGSLRLSCAASGYTSSLNAMGWYRQAPGKERELVARITTDGTSTYYADSVKGRFTISRDNAKNTVYLQMNSLKPEDTAVYYCNKRSHLYGNTPYYYWGQGTQVTVSS | low polyreactivity |
| QVQLVESAGGLVQAGGSLRLSCAPSGSILASNAMGCYRQAPGKDRELVSAITTSGGSTYYADYVKGRFTISLDNAKNTVYLQMNSLKPEDTAVYYCNAEYSRGRWLRYGYWGQGTQVTVSS | high polyreactivity |
| QVQLVESAGGLVQAGGSLRLSCSASGLTFVPNAMGWYRQAPGKERELVATISSSGGRTTYADSVKGRFTISRDKAKNTVYLQMNSLKPEDTAVYYCADQGYWTGYDYWGQGTQVTVSS | high polyreactivity |
| QVQLVESAGGLVQAGGSLRLSCSASGTIIWFYAMGWYRQAPGKERELVAAITRSGGSTYYADSVKGRFTISRDNAKNTVYLQMNSLKPEDTAVYYCAAGTVDYRGYFEMYYWGQGTQVTVSS | low polyreactivity |

| Sequence | polyreactivity (PSR sort gate) |
| --- | --- |
| QVQLVESAGGLVQAGGSLRLSSAASAFTFYSNAMGWYRHAPGKEREFVAAGSTYYADSVKGRFTISRDNAKNTVYLQMNSLKPEDTAVYYCAADSYDVSRRYEYEYWGEGTQVTVSS | low polyreactivity |
| QVQLVESAGGLVQAGGSLRLTCDASGSTFGYYAMGLYRQAPGKEMELVAAITSNDGSTNYADSVKGRFTISRDNAKNTVYLQMNSLKPEDTAVYYCNARYFVAVISSFDYWGQGTQVTVSS | low polyreactivity |
| QVQLVESAGGLVQAGGSLSLSCAASGRTFIRHAMGRDRQAPGKERELVAAINSGGITNYADSVKGRFTISRVNAKNTVFLKRNSLKPEDTAVYYCAAYKPWYVGLYPWYDYWGQGTQVTVSW | low polyreactivity |
| QVQLVESAGGLVQAGGSLSLSCAASGSMFIYNAMGWYRQAPGKERELVATISSGGSTTYADSVKGRFTISRDNAKNTVYLQMNSLKPEDTAVYYCATDDPPDQYFYLGYYYWGANDYWGQGTQVTVSS | low polyreactivity |
| QVQLVESAGGLVQAGGSLSLSCAATGSILQEYAMGSYRQAPGTERELVAAITRRGGNTYYADSVKGRFTISRDNAKNTVYLQMNSLKPEDTAVYYCAAPHGKYSWQYEYWGQGTQVTVSS | low polyreactivity |
| QVQLVESAGGLVQAGRSLRLSCAASGYTFAKYTKGWYREATGKERELVAAISRGGSTTYADSVKGRFTISRDNAKNTVYLQMHSLKPEDTAVYYCAADVHRVVLEYDYWGQGTQVTVSS | low polyreactivity |
| QVQLVESAGGLVQAGVSLRLSCAASGFTFGWYAMGWYRQAPGKERELVATISWSGSSTYYADSVKGRFTISRDNAKNTVYVQMNSLKPDDTAVYYCNAVYGRFVVLRYDYWGQGTQVTVSS | high polyreactivity |
| QVQLVESAGGLVQAVGSHRLSSATSGSIFSGNSMGWYRQAPGTQSELVADISQNGGRTYYADSVKGRFTISRDNAKYTVYLQINSLKPEDTGVYYCAARGWYRYGSVYYIGDYWGQGTQGTVSS | high polyreactivity |
| QVQLVESARGLVQAGGSLRLSCAASGFTFYKYAMGWYRQAPGKETELVDAISSGGRTNYADSVKGRFTISRDNAMNTVYLHMNSLNPEDTAVYFCAADRSYRSGYNYWGQGTQVTVSS | high polyreactivity |
| QVQLVESAVGLVQAGGSLRLSCAASGILFARYAMGWYRQAPGKERELVAVISGSGGSTYYADSVKGRFTISRDNAKNTVYLQMNSLKPEDTAVYYCNAEFESGHDLDWYDYWGQGTQVTVSS | low polyreactivity |
| QVQLVESCGCLVQAGGSLRLSCAASGIIFFPYAMGWYRQAPGKEREFVAAITSRRGSTYYADSVKGRFTISRDNPKNTVYLQMNILKPEDTAVYYCAAAWCAPSRFFSAFDYWGQGTQVTVSS | low polyreactivity |
| QVQLVESCGGLDQAGGSLRLSCAASGFMFHLYGMGWYRQAPGKEMEWVAAISSGGRTYYADSVKGRFTISRDNAKNTVYLQMNSLKPEDTAVYYCAVYVAYLYSYYYWGQGTQETVSS | low polyreactivity |
| QVQLVESCGGLVQAGASLRLSCAASGRTFSENAMGWYRQARGKEREFVAGNSFSGDGRTYYADSVKGRFTISRDNAKNTVYLQMNSLKPEDTAVYYCAAPHRSRTHELDYWGQGTQVTVSS | low polyreactivity |
| QVQLVESCGGLVQAGGSLRLSCAASGFIFDWYAMGWYRQAPGKVRELVAAITTDGGGTYYADSVKGRFTISRDNAKNNVYLQMNSLKPEDTAVYDCAADGVSTSPQYDYWGQGTQVTVSS | high polyreactivity |
| QVQLVESCGGLVQAGGSLRLSCAASGFIFTYYVMGWYRQAPGKERELVATISISDGTTYADSVKGRFTISRDNAKNTVYLQMNSLKPEDTAVYYCAADNSFTDNYWGQGTQVTVSS | low polyreactivity |
| QVQLVESCGGLVQAGGSLRLSCAASGGTFGPYAMAWYRQAPGKEREFVARITGSGTRTYYADSVKGRFTISRDNAKNTVYLQMNSLKPEDTAVYYCATSHSRGSRGHDYWGQGTQVTVSS | low polyreactivity |
| QVQLVESCGGLVQAGGSLRLSCAASGLTFLAYDMGWYRQAPGKEREFVAAITGGGSTHYADSVKGRFTISRDNAKTTVYLQMNSLKTEDTAVYYCNADVYVYSVTSHYPSYRLDYWGQGTQVTVSS | high polyreactivity |
| QVQLVESCGGLVQAGGSLRLSCAASGRTFSLYTMGWYRQAPGKERELVATIRSRGGSTYYADSVKGRFTISRDNAKNTFYLQMNSLIPEDTAVYYCATVLRGPFLGWHGGPMYHWGQGTQVTVSS | low polyreactivity |
| QVQLVESCGGLVQAGGSLRLSCAASGRTIASYAMGWYRQAPGKERELVAAITSGGSTYYADSVKGRFTISRDNAMNTVYLQMNSLKPEDTAVYYCARKHAIWRGYDYWGQGTQVTVSS | low polyreactivity |
| QVQLVESCGGLVQAGGSLRLSCAASGSIFADYAMGWYRQAPGKEREFVAAITRSGTSTYYADSVKGRFTISRDNAKNTVYLQMTSLKPVDTPVYYCAKTEVLLYLYTLDYWGQGTQVTVSS | low polyreactivity |
| QVQLVESCGGLVQAGGSLRLSCAASGSIFPYYTMGWYRQAPWKERELVAAISGSGGSTYYADSVKGRFTISRDNAKNTVYLQMNSLKAEYTAVYYCAAYRRTWFDYWGQGTQVTVSS | high polyreactivity |
